# Experimental data taken from US20150216948A1, “CYTOCHROME P450 SUICIDE GENE SYSTEM” (priority 2012, published 2015).
# Where two headings read alike, the source gives them in different places.
# B1: h-S427: native human CYP4B1 protein with serine at position 427 (protein, listed as Homo sapiens)
# chain: MVPSFLSLSFSSLGLWASGLILVLGFLKLIHLLLRRQTLAKAMDKFPGPPTHWLFGHALEIQETGSLDKVVSWAHQFPYAHPLWFGQFIGFLNIYEPDYAKAVYSRGDPKAPDVYDFFLQWIGRGLLVLEGPKWLQHRKLLTPGFHYDVLKPYVAVFTESTRIMLDKWEEKAREGKSFDIFCDVGHMALNTLMKCTFGRGDTGLGHRDSSYYLAVSDLTLLMQQRLVSFQYHNDFIYWLTPHGRRFLRACQVAHDHTDQVIRERKAALQDEKVRKKIQNRRHLDFLDILLGARDEDDIKLSDADLRAEVDTFMFEGHDTTTSGISWFLYCMALYPEHQHRCREEVREILGDQDFFQWDDLGKMTYLTMCIKESFRLYPPVPQVYRQLSKPVTFVDGRSLPAGSLISMHIYALHRNSAVWPDPEVFDSLRFSTENASKRHPFAFMPFSAGPRNCIGQQFAMSEMKVVTAMCLLRFEFSLDPSRLPIKMPQLVLRSKNGFHLHLKPLGPGSGK
# B2: r-P422: wildtype rabbit CYP4B1 enzyme (protein, listed as Oryctolagus cuniculus)
# chain: MLGFLSRLGLWASGLILILGFLKLLRLLLRRQRLARAMDSFPGPPTHWLFGHALEIQKTGSLDKVVTWTQQFPYAHPLWVGQFIGFLNIYEPDYAKAVYSRGDPKAPDVYDFFLQWIGKGLLVLDGPKWFQHRKLLTPGFHYDVLKPYVAIFADSTRIMLEKWEKKACEGKSFDIFSDVGHMALDTLMKCTFGKGDSGLNHRDSSYYVAVSELTLLMQQRIDSFQYHNDFIYWLTPHGRRFLRACRAAHDHTDRVIRQRKAALQDEKEREKIQNRRHLDFLDILLDVRGESGVQLSDTDLRAEVDTFMFEGHDTTTSGISWFLYCMALYPEHQQRCREEVREILGDQDSFQWEDLAKMTYLTMCMKECFRLYPPVPQVYRQLSKPVSFVDGRSLPAGSLISLHIYALHRNSDVWPDPEVFDPLRFSPENSSGRHPYAFIPFSAGPRNCIGQQFAMNEMKVVTALCLLRFEFSVDPLRLPIKLPQLVLRSKNGIHLYLKPLGPK
# B3: h-P427: human CYP4B1 with serine at position 427 mutated back to proline (protein)
# chain: MVPSFLSLSFSSLGLWASGLILVLGFLKLIHLLLRRQTLAKAMDKFPGPPTHWLFGHALEIQETGSLDKVVSWAHQFPYAHPLWFGQFIGFLNIYEPDYAKAVYSRGDPKAPDVYDFFLQWIGKGLLVLDGPKWFQHRKLLTPGFHYDVLKPYVAIFADSTRIMLEKWEKKACEGKSFDIFSDVGHMALDTLMKCTFGKGDSGLNHRDSSYYVAVSELTLLMQQRIDSFQYHNDFIYWLTPHGRRFLRACQVAHDHTDQVIRERKAALQDEKVRKKIQNRRHLDFLDILLGARDEDDIKLSDADLRAEVDTFMFEGHDTTTSGISWFLYCMALYPEHQHRCREEVREILGDQDFFQWDDLGKMTYLTMCIKESFRLYPPVPQVYRQLSKPVTFVDGRSLPAGSLISMHIYALHRNSAVWPDPEVFDPLRFSTENASKRHPFAFMPFSAGPRNCIGQQFAMSEMKVVTAMCLLRFEFSLDPSRLPIKMPQLVLRSKNGFHLHLKPLGPGSGK
# Tests used:
# [1] = relative to rabbit CYP4B1, cited from earlier work
# HepG2 cells [2] = assay: Half-life of CYP4B1/EGFP fusion proteins after cycloheximide (western blot, FACS); assay type: cell-based, human; settings: EGFP fusion; for protein half-life: 50 μg/ml cycloheximide, G418-selected HepG2 cells
# Description: FIGS. 3 C and D show CYP4B1 stability as analysed by western blotting and by flow cytometry. The studies on protein expression and stability were performed with the rabbit and human CYP4B1/EGFP fusion construction in the lentiviral vector with the additional IRES-neomycin cassette. Half-life analysis was performed by adding 50 μg/ml cycloheximide to the transduced and G418-selected HepG2 cells. Samples were collected at the indicated time points.
# (§1) Next, it was analyzed whether the different activities of the human and the rabbit proteins in processing 4-IPO could be explained by differences in protein half-life. However, as no antibody was available that can detect both CYP4B1 proteins, EGFP fusion constructs were generated. With these constructs, EGFP antibodies can be utilized to visualize and compare the expression levels and the half-lives of the fusion proteins in cells by western blots. EGFP expression can also be used for flow cytometry assessment of the expression levels due to the fluorescent properties of the fusion proteins. 5′- and 3′-fusions of EGFP with the native rabbit P422 and the human P427 CYP4B1 proteins were cloned in LV vectors with an IRES-NEO (NEO=neomycin phosphotransferase cDNA, npt II) and stably expressed in HepG2 cells (FIG. 3 B). For comparison, the corresponding IRES-EGFP constructs were also included, as these vectors had already been used in previous experiments and activity measurements thus already existed. Transduced cells were incubated for 24, 48 and 72 hours with increasing concentration of 4-IPO. Cultures were then harvested, cells stained with propidium iodine and subsequently analyzed for survival of transduced EGFP+ cells by flow cytometry (FIG. 3 A).
# After standard inhibition of de novo protein synthesis by cycloheximide, the half-life of the CYP4B1 proteins in stably transduced and G418-resistant HepG2 cells was assessed by determining the protein expression levels over time either in western blotting or in FACS analysis as EGFP fluorescence. […] For the human native protein (h-S427), the mean fluorescence indicates a short average half-life of only 6 hours.
# HepG2 cells [3] = assay: 4-IPO toxicity assay: survival of transduced HepG2 cells by flow cytometry (propidium iodine); assay type: cell-based, human; settings: for 4-IPO processing activity / cell killing (in words): transduced cells challenged with 4-IPO
# Source text: Initially, the serine at position 427 in the human CYP4B1 was mutated back to proline (h-P427), which is present at this position in all CYP4B1 proteins. Additionally a proline to serine exchange was created in the native rabbit CYP4B1 enzyme at the corresponding position 422 (r-P422). To immediately exclude the possibility that the different activities between human and the rabbit protein isoforms are simply due to differences in mRNA stability, the human CYP4B1 cDNA (SEQ ID NO.: 2) was optimized for human-codon usage (SEQ ID NO.: 3) by de novo synthesis with silent mutagenesis of the cDNA, thus removing internal TATA-boxes, instability motives, RNA secondary structures and (cryptic) splice donor/acceptor sites and ensuring an average GC content of around 60%. All cDNAs were cloned into the same lentiviral (LV) HIV1-based expression vector and LV supernatants produced by plasmid transfection in HEK293T cells. Subsequently, the two rabbit and the four human cDNAs were stably expressed in the human liver cell line HepG2. Stably expressing transduced cells were challenged after five days with increasing concentrations of 4-IPO for 24, 48 and 72 hours and then the survival of cells analyzed by flow cytometry using propidium iodine for live/dead cell discrimination.
# as §1
# primary human T-cells = assay: 4-IPO toxicity in transduced primary T-cells; assay type: cell-based; settings: 24 h and 72 h exposure to increasing doses of 4-IPO, EGFP fusions, FIG. 7 B
# Source text: Compared to the HepG2 liver cells, primary T-cells might not provide an optimal environment for the function of P450 cytochromes (although the necessary reductase is ubiquitously expressed) and the infection of primary T-cells is considerably more complex.
# The T cells were isolated by Ficoll and stimulated with CD3, CD28 and IL2 for 3 days before they were infected with lentiviral vectors using fibronectin. For optimal toxicity in T cells, the suicide genes were not expressed as EGFP fusions proteins but a IRES-EGFP-WPRO vector construct was used. […] However, after 24 hours over 70% of the transgenic T cells were eliminated by CYP4B1 P427 mut12. […] The determination of the virus titer was based on the titration of the reference cell line HT1080.
Molecule,activity to activate 4-IPO compared to the rabbit CYP4B1 [1] [%],activity to activate 4-IPO compared to the rabbit CYP4B1 ([1]; listed as human isoform) [%],protein half-life (HepG2 cells [2]) [h],4-IPO processing activity / cell killing (in words) (HepG2 cells [3]; listed as native CYP4B1 protein),4-IPO processing activity / cell killing (in words) (HepG2 cells [3]; listed as native human CYP4B1 S427 protein),killing of primary T-cells with 4-IPO (in words) (primary human T-cells),"protein stability (in words) (HepG2 cells [2]; cycloheximide, HepG2 cells)","transduced HepG2 cells eliminated / dead (HepG2 cells [3]; after 24 hours of 4-IPO treatment, FIG. 2)",4-IPO processing activity / cell killing (in words) (HepG2 cells [3]),"reduction in cell survival rates (HepG2 cells [3]; transduced cells with 4-IPO, FIG. 2)","cell survival rates upon administration of 4-IPO (HepG2 cells [3]; transduced cells, FIG. 2)"
B1,> 1,≤ 1,6,comparable to the survival rate of non-transduced control cells,cannot process 4-IPO at all,–,–,–,–,–,–
B2,–,–,–,–,–,more active than the native P427 and the human codon-optimized P427 CYP4B1 enzymes,strongest protein stability,over 95%,–,–,–
B3,–,–,20,–,–,can be killed within three days,–,–,rendered this enzyme active for processing 4-IPO,about 50%,about 45%
